# Assay results as given in article PMC4894640, “RAB-10 Promotes EHBP-1 Bridging of Filamentous Actin and Tubular Recycling Endosomes” (PLoS Genetics, 2016).
# Molecular target: F-actin (polymerized non-muscle actin) (UniProt P60709 1-375)
# Assay: co-sedimentation; GST fusion protein incubated with 40 ul freshly polymerized non-muscle actin (21 uM F-actin) or F-actin buffer alone, 30 min at room temperature, 150,000 x g 1.5 h at 24 C; supernatant and pellet on SDS-PAGE, coomassie or western blot, densitometry
# Conditions: both partners purified
binder,measurement,value
"GST-EHBP-1(260-510aa) (domain or fragment, C. elegans, UniProt G5ECW3 260-510, looked up, C. elegans EHBP-1, central calponin homology (CH) domain, residues 260-510; Cloned into pGEX-2T modified with a Gateway cassette; also called GST-CH; GST-EHBP-1-CH (aa260-510); source: E. coli ArcticExpress, purified (glutathione-Sepharose 4B, eluted with glutathione); held on glutathione beads for the pull-down) APAPIATNRHSRSSRASTEEKASTTIEFRVDSNSRHVPVTAIATPYYLQSGTMSRGRSNSPRAPSRDAVPQPIDGETLLSWCQRVTNGYSHVKVNDFMKSWNNGLALCAVLHSYRPDLIGDYETLDISNNMSGRISNIQRALDSLTLIGITEVPTVDMFLTPDRKQIEFLLQHLRRIFEGFDEGSTPASASDHRISRTFGINESEEKVVAMITEIRNQKDLEEAVDYRHIPDEVPVTPQLASRNPALNQPT",P/S ratio (pellet/supernatant) with actin filaments,~80%
